In this assay the target is empty AAV8 capsid (recombinant adeno-associated virus serotype 8, no genome) (adeno-associated virus 8 (AAV8)) (UniProt Q8JQF8). Put plainly: native MS; charge detection mass spectrometry (CDMS) of single ions; nanoelectrospray from 200 mM ammonium acetate pH 7.5 after exchange on Micro Bio-Spin columns; 100 ms trapping time; charge versus mass scatterplot; capsid with capsid (multimers of whole particles).

The stoichiometry N is the number of molecules, sites or subunits per partner or assembly.

Several values for one entry are separate records, joined by “and”; a condition that tells them apart may be missing. Equal entries are not always repeated.

Consider “empty AAV8 capsid (recombinant adeno-associated virus serotype 8, no genome) (from UniProt Q8JQF8 1-738) (complex)”, for which the percent of ions that are capsid dimers came out at 3.8%; the percent of ions that are capsid trimers worked out at 0.8%; the stoichiometry N was 2 and 3.

The values are drawn from publication PMC8476707.
